How the values were obtained:
[1] = target: T1, complement factor D (fD) (Homo sapiens, UniProt P00746 SEQ:1-228); assay: FP filter; double-filter nitrocellulose binding; 100 nM DNA, 5 uM fD; settings: tags: 6xHis; label: end-labeled; potential G4
Method: (§1) Specificity of binding was assessed by measuring binding to casein. In all binding reactions, the oligonucleotide concentration was 100 nM, the fD concentration 5 μM and the casein concentration 20 μM.

[2] = target: T1, complement factor D (fD); assay: FP filter; not above naive library (3.6%); 100 nM DNA, 5 uM fD; settings: tags: 6xHis, label: end-labeled
Method: as §1

[3] = target: T1, complement factor D (fD); assay: inhibition; alternative-pathway hemolysis of rabbit RBC, C1q-depleted human serum, room temperature; settings: protein: extract; tags: endogenous fD in C1q-depleted human serum; label: Dy650-N30S.R.OMe 2'-OMe oligo hybridized to 3' constant region (flow assays)
Method: Briefly, citrated rabbit blood was centrifuged at 500×g for 5 minutes at room temperature. The top plasma fraction was removed and the volume was replaced with 1× Veronal buffer containing 0.1% gelatin (prepared from 5× Veronal buffer, Lonza #12-624E and 2% gelatin solution, Sigma-Aldrich, G1393). The red blood cells were washed two more times. The washed rabbit red blood cells were diluted in 1× Veronal buffer to a concentration of 2×10⁹ cells/mL (RBCs).
In V-bottom 96-well plates the following reagents were added to a final volume of […] of 1× Veronal buffer with 0.1% gelatin, 100 μL aptamer, 30 μL of C1q-depleted human serum and 20 μL RBCs. This mixture was incubated for 25 minutes at room temperature, then the reaction was stopped by the addition of 5 μL of 500 mM EDTA. The plate was centrifuged for 5 minutes at 500×g at room temperature, then 100 μL of supernatant was removed and the extent of RBC lysis was determined by measuring absorbance at 405 nm.
C1-C3 identified in Example 1, a non-specific control oligo (C8), and one anti-fD Fab antibody fragment as described in Example 1 (AFD) were incubated with C1q-depleted human serum to allow binding to fD present in the serum, then assayed for the ability to inhibit fD-dependent lysis of rabbit red blood cells (FIG. 11). […] IC₅₀ values for C1-C3, C8 and AFD are depicted in Table 14.

T1 sequence (P00746 26-253): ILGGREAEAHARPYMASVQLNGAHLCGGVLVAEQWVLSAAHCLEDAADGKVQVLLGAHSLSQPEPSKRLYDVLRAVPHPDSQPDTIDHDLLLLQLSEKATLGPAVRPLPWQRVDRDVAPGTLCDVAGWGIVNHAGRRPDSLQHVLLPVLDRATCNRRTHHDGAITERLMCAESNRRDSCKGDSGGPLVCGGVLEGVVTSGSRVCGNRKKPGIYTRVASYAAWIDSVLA

B1: Aptamer 8 (rank 5) (ssDNA)
DNA: GTGACGACTGACATATCTGCTATTTTGGGGCCTGGGTGTTGGGGATTGGGGACTATGTGTCGTAGTTGAGTCTGAGTGCT
binding signal [1]: 60.3 % bound

B2: Aptamer 4 (rank 1) (ssDNA)
DNA: GTGACGACTGACATATCTGCTCCGAGGTTATTGGGGTTGGGGCCTGGGCGATTGGGGCCTCGTAGTTGAGTCTGAGTGCT
binding signal [1]: 58.3 % bound

B3: Aptamer 7 (rank 4) (ssDNA)
DNA: GTGACGACTGACATATCTGCGGCGGTTGGGGTCGAAGGGCGAGGGGTGGGAGGTCGCCGTAGTTGAGTCTGAGTGCT
binding signal ([2]; potential G4): 3.2 % bound

B4: Aptamer 10 (rank 7) (ssDNA)
DNA: GTGACGACTGACATATCTGCCCTATAGGGGTGTGGGCGAGGGGTGGGTGGTAGGGCGGCTCGTAGTTGAGTCTGAGTGCT
binding signal ([2]; potential G4): 1.9 % bound

B5: Aptamer 12 (rank 9) (ssDNA)
DNA: GTGACGACTGACATATCTGCAAAAGTTAGATTGACATGGTATGCACCGTCTGAGGTTGGTCGTAGTTGAGTCTGAGTGCT
binding signal ([2]; non-G4): 1.6 % bound

B6: Aptamer 27 (rank 24) (ssDNA)
DNA: GTGACGACTGACATATCTGCGGGCGTCTGAGCGCATGGATGACCCACCGACAGATTGCGGCGTAGTTGAGTCTGAGTGCT
binding signal ([2]; non-G4): 0.7 % bound

B7: Aptamer 15 (rank 12) (ssDNA)
DNA: GTGACGACTGACATATCTGCTGCTTCCAGCGGTCATGATATGCACTGTCTGAAGCTCGGTCGTAGTTGAGTCTGAGTGCT
binding signal ([2]; non-G4): 0.4 % bound

B8: C2 (Aptamer 2) (ssRNA)
RNA: GGGAGUGUGUACGAGGCAUUAGUCCGCCGAAGUCUUUUGGCUCGGUUUUUUCAAGGUCGGCGGCUUUGAUACUUGAUCGCCCUAGAAGC
modifications: 2'-F G; 2'-OMe A, C, U
IC50 [3]: 3.3 nM

B9: C1 (Aptamer 1) (ssRNA)
RNA: GGGAGUGUGUACGAGGCAUUAGGCCGCCACCCAAACUGCAGUCCUCGUAAGUCUGCCUGGCGGCUUUGAUACUUGAUCGCCCUAGAAGC
modifications: 2'-F G; 2'-OMe A, C, U
IC50 [3]: 5.1 nM

B10: C3 (Aptamer 3) (ssRNA)
RNA: GGGAGUGUGUACGAGGCAUUAGGCCGCCACCUCGUUUGAUUGCGGUUGUUCGGCCGCGGGCGGCUUUGAUACUUGAUCGCCCUAGAAGC
modifications: 2'-F G; 2'-OMe A, C, U
IC50 [3]: 7 nM

B11: Aptamer 5 (rank 2) (ssDNA)
DNA: GTGACGACTGACATATCTGCGTTTGGGGTTGGGGCCTGGGAGTTTGGGGAGCAGAAAGGACGTAGTTGAGTCTGAGTGCT
binding signal [1]: 63 % bound
